For this test, the target named is human prolactin receptor (PRLR) on cells (human) (UniProt P16471). Description: cell-based or functional assay.

This passage reports Inhibition of phosphorylation of ERK1/2 in %, Inhibition of phosphorylation of PRLR in % and Inhibition of phosphorylation of STAT5 in % results from patent US20130129739A1.

Sequence of human prolactin receptor (PRLR) on cells (human) (P16471 25-622): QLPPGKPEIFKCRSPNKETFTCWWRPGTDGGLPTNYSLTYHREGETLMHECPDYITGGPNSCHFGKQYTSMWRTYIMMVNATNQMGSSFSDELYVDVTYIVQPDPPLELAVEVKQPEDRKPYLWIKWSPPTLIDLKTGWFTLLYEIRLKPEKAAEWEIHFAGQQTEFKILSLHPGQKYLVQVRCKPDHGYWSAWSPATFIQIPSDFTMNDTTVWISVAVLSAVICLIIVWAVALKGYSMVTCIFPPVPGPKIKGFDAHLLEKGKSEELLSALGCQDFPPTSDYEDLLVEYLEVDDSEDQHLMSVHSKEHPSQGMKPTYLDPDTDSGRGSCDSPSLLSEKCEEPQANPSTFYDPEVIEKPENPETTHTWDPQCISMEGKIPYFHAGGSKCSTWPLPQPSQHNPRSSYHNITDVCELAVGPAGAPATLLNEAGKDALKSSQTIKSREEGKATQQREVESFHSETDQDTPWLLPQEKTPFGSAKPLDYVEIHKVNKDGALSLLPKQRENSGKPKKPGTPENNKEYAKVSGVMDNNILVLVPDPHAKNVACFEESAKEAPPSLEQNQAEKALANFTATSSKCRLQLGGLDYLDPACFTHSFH

Regarding Negative control (Table 8), the Inhibition of phosphorylation of ERK1/2 in % at 7.5 µg/ml (ELISA, prolactin-treated T47D lysates) turned out to be 9%; the Inhibition of phosphorylation of PRLR in % at 7.5 µg/ml (ELISA, prolactin-treated T47D lysates) was 2%; the Inhibition of phosphorylation of STAT5 in % at 7.5 µg/ml (ELISA, prolactin-treated T47D lysates) came to 0%.
